Biological target: the molecule itself
Test: cryo-EM structure; single-particle cryo-EM with Build and Retrieve (BaR) on the 100-200 kD SEC peak of raw human kidney microsome lysate; 20 mM Tris-HCl pH 7.5, 100 mM NaCl; 0.6 mg/ml

B1: betaine-homocysteine methyltransferase (BHMT) (enzyme, human (endogenous in kidney microsomes), UniProt Q93088 1-406, looked up)
chain: MPPVGGKKAKKGILERLNAGEIVIGDGGFVFALEKRGYVKAGPWTPEAAVEHPEAVRQLHREFLRAGSNVMQTFTFYASEDKLENRGNYVLEKISGQEVNEAACDIARQVADEGDALVAGGVSQTPSYLSCKSETEVKKVFLQQLEVFMKKNVDFLIAEYFEHVEEAVWAVETLIASGKPVAATMCIGPEGDLHGVPPGECAVRLVKAGASIIGVNCHFDPTISLKTVKLMKEGLEAARLKAHLMSQPLAYHTPDCNKQGFIDLPEFPFGLEPRVATRWDIQKYAREAYNLGVRYIGGCCGFEPYHIRAIAEELAPERGFLPPASEKHGSWGSGLDMHTKPWVRARARKEYWENLRIASGRPYNPSMSKPDGWGVTKGTAELMQQKEATTEQQLKELFEKQKFKSQ
notes: human BHMT, endogenous in kidney microsomes; Zn2+-free and ligand-free in the structure; also called betaine-homocysteine S-methyltransferase; source: endogenous, human kidney microsomes (bought: SEKISUI XenoTech), lysate enriched by size exclusion chromatography
- stoichiometry N: 4

— article PMC9713302, “Simultaneous solving high-resolution structures of various enzymes from human kidney microsomes” (Life Science Alliance, 2022)
